Assay results as given in the Human Domainome abundance scans (Beltran et al. 2025).
± gives the uncertainty stated by the source.

B1: Nuclear receptor subfamily 1 group D member 2, residues 103 to 171; numbered along this chain, Q14995 (parent)
chain: CKVCGDVASGFHYGVHACEGCKGFFRRSIQQNIQYKKCLKNENCSIMRMNRNRCQQCRFKKCLSVGMSR
B2: Protein S100-G, residues 1 to 79; numbered along this chain, P02633 (parent)
chain: MSAKKSPEELKGIFEKYAAKEGDPNQLSKEELKLLLQTEFPSLLKGPSTLDELFEELDKNGDGEVSFEEFQVLVKKISQ

Variants of: B1
Assay: abundance fitness (aPCA) (normalised: wild type 0, dead -1); higher = more abundant; growth selection in yeast, the domain comes from the species named
Conditions: Homo sapiens

In order of rising abundance fitness:
1. C57R  -1.21 ± 0.32
2. A17P  -0.962 ± 0.3
3. S64I  -0.911 ± 0.35
4. F24N  -0.908 ± 0.37
5. K61P  -0.905 ± 0.34
6. A8P  -0.893 ± 0.17
7. A17R  -0.887 ± 0.16
8. C54G  -0.847 ± 0.1
9. F59S  -0.809 ± 0.25
10. G66P  -0.802 ± 0.49
11. L63K  -0.8 ± 0.28
12. F24G  -0.798 ± 0.17
13. F25Q  -0.797 ± 0.23
14. F59P  -0.783 ± 0.21
15. C18W  -0.752 ± 0.29
16. C54L  -0.749 ± 0.087
17. V15D  -0.746 ± 0.33
18. D6S  -0.706 ± 0.45
19. R58P  -0.698 ± 0.18
20. G5W  -0.684 ± 0.089
21. K61H  -0.681 ± 0.29
22. I33P  -0.672 ± 0.12
23. A17L  -0.666 ± 0.14
24. V15C  -0.623 ± 0.21
25. V65D  -0.601 ± 0.2
26. C57Q  -0.59 ± 0.33
27. S68L  -0.584 ± 0.18
28. H12Q  -0.568 ± 0.2
29. Q30R  -0.557 ± 0.16
30. I33R  -0.531 ± 0.058
31. K2F  -0.53 ± 0.24
32. Q30M  -0.521 ± 0.41
33. H12F  -0.514 ± 0.16
34. Y13K  -0.491 ± 0.1
35. S64G  -0.481 ± 0.13
36. N52M  -0.419 ± 0.23
37. R26V  -0.383 ± 0.16
38. A8T  -0.363 ± 0.15
39. E19W  -0.325 ± 0.17
40. M49R  -0.316 ± 0.11
41. K36Q  -0.305 ± 0.27
42. F59Y  -0.28 ± 0.24
43. K37W  -0.225 ± 0.17
44. N43D  -0.222 ± 0.16
45. Q55K  -0.202 ± 0.13
46. S45L  -0.183 ± 0.1
47. M49P  -0.178 ± 0.25
48. H16A  -0.169 ± 0.055
49. L39H  -0.167 ± 0.17
50. L39G  -0.163 ± 0.063
51. Q55S  -0.115 ± 0.074
52. E42K  -0.109 ± 0.14
53. L39P  -0.106 ± 0.11
54. H16P  -0.085 ± 0.091
55. R69Y  -0.083 ± 0.2
56. L39Q  -0.068 ± 0.15
57. S45V  -0.056 ± 0.1
58. K2Q  -0.049 ± 0.14
59. K40L  -0.042 ± 0.051
60. Q30L  -0.023 ± 0.095
61. E42M  -0.008 ± 0.15
62. M47A  0.006 ± 0.1
63. R53H  0.029 ± 0.2
64. S68A  0.029 ± 0.2
65. Q31F  0.04 ± 0.2
66. Y13F  0.059 ± 0.089
67. R53T  0.092 ± 0.08
68. K36G  0.092 ± 0.11
69. R27V  0.094 ± 0.096
70. R53G  0.103 ± 0.052
71. F59L  0.107 ± 0.082
72. Q56N  0.143 ± 0.18
73. L39I  0.161 ± 0.2
74. R69S  0.176 ± 0.12
75. N32E  0.176 ± 0.083
76. M47S  0.184 ± 0.083
77. K40W  0.227 ± 0.047
78. R69A  0.233 ± 0.088
79. S64K  0.236 ± 0.095
80. R53F  0.257 ± 0.2
81. M47T  0.307 ± 0.13
82. K37N  0.375 ± 0.11
83. R48D  0.402 ± 0.17
84. M49I  0.56 ± 0.37

Variants of: B2
Assay: as above
Conditions: Bos taurus

In order of rising abundance fitness:
1. M1H  -1.42 ± 0.33
2. M1P  -1.34 ± 0.26
3. S2P  -0.699 ± 0.08
4. M1Q  -0.678 ± 0.15
5. M1W  -0.667 ± 0.11
6. M1R  -0.631 ± 0.091
7. K5W  -0.575 ± 0.088
8. M1A  -0.572 ± 0.1
9. M1E  -0.552 ± 0.1
10. M1Y  -0.501 ± 0.13
11. M1D  -0.392 ± 0.13
12. M1L  -0.378 ± 0.085
13. M1S  -0.368 ± 0.097
14. K4W  -0.343 ± 0.087
15. K4A  -0.337 ± 0.068
16. M1V  -0.313 ± 0.078
17. M1G  -0.267 ± 0.1
18. K5P  -0.253 ± 0.068
19. K5C  -0.252 ± 0.082
20. M1K  -0.245 ± 0.099
21. K4G  -0.223 ± 0.073
22. K4C  -0.222 ± 0.079
23. K5Q  -0.222 ± 0.082
24. M1F  -0.193 ± 0.11
25. M1N  -0.186 ± 0.13
26. A3W  -0.178 ± 0.091
27. K5H  -0.163 ± 0.074
28. K4E  -0.154 ± 0.095
29. K5R  -0.154 ± 0.067
30. K4V  -0.145 ± 0.066
31. S2A  -0.138 ± 0.073
32. A3P  -0.137 ± 0.073
33. A3K  -0.133 ± 0.081
34. K5V  -0.126 ± 0.067
35. A3S  -0.123 ± 0.063
36. S2W  -0.118 ± 0.095
37. S2E  -0.105 ± 0.11
38. K5E  -0.105 ± 0.092
39. K4P  -0.097 ± 0.071
40. A3E  -0.095 ± 0.094
41. S2H  -0.09 ± 0.094
42. A3G  -0.09 ± 0.076
43. K5N  -0.063 ± 0.076
44. K4Q  -0.06 ± 0.082
45. A3T  -0.053 ± 0.07
46. A3H  -0.049 ± 0.082
47. K5A  -0.037 ± 0.072
48. K5S  -0.03 ± 0.06
49. K4M  -0.023 ± 0.087
50. K5M  -0.017 ± 0.082
51. S2L  -0.015 ± 0.067
52. K5F  -0.015 ± 0.071
53. A3Q  -0.01 ± 0.081
54. K4S  -0.005 ± 0.061
55. K4H  -0.004 ± 0.077
56. S2Q  0 ± 0.1
57. K4F  0 ± 0.068
58. K5T  0 ± 0.068
59. A3L  0.007 ± 0.063
60. K4Y  0.01 ± 0.07
61. A3M  0.013 ± 0.081
62. K5Y  0.025 ± 0.071
63. M1I  0.027 ± 0.094
64. A3N  0.03 ± 0.087
65. S2G  0.039 ± 0.086
66. K5I  0.045 ± 0.075
67. K4L  0.051 ± 0.061
68. K4T  0.06 ± 0.068
69. A3C  0.061 ± 0.1
70. A3D  0.066 ± 0.09
71. K4N  0.067 ± 0.072
72. S2F  0.073 ± 0.081
73. A3I  0.077 ± 0.081
74. S2V  0.085 ± 0.084
75. K4D  0.092 ± 0.08
76. S2N  0.094 ± 0.087
77. S2T  0.102 ± 0.076
78. A3F  0.103 ± 0.084
79. S2D  0.116 ± 0.081
80. A3V  0.129 ± 0.073
81. S2I  0.144 ± 0.088
82. S2K  0.225 ± 0.1
83. S2M  0.279 ± 0.12
